Results: publication PMC3290997 (Biochemistry, 2012)
Read-outs that look alike come from different tables or passages of the source. No end group written: not given here. *: point of attachment. Biotin = O=C1N[C@H]2[C@H](CS[C@H]2CCCCC(=O)*)N1; MBP = 4-maleimido-benzophenone

Assays:
SecA [1] = molecular target: T1, SecA (E. coli, UniProt P10408 1-901); experiment: cross-linking
SecA [2] = molecular target: T1, SecA; experiment: cross-linking; remark: listed apart in the source

T1 sequence (P10408 whole entry): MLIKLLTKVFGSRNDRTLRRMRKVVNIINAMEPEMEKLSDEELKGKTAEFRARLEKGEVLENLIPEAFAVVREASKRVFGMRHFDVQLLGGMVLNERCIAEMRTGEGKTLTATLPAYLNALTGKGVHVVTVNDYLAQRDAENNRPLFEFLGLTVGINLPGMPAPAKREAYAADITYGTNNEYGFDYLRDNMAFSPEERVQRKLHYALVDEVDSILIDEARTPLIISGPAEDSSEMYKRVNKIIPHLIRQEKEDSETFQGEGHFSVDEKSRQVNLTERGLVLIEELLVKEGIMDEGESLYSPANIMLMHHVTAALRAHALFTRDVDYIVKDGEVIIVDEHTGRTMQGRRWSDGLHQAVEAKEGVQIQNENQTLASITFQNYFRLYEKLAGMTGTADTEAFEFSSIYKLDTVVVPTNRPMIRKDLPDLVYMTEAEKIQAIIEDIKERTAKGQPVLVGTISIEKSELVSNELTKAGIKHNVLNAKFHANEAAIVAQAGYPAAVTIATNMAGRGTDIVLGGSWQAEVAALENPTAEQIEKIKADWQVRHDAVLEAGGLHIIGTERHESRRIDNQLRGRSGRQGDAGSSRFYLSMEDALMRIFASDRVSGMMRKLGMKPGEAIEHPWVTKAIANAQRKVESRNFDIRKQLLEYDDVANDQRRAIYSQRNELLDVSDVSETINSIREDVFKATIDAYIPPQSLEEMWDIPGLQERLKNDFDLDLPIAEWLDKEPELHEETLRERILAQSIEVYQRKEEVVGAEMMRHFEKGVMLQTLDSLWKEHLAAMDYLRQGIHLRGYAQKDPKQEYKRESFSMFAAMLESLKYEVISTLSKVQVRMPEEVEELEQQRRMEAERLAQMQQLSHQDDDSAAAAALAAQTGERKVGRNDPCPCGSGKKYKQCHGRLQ

Row | binding result (SecA [1]) | binding result (SecA [2]) | Binder
1 | binds |  | Biotin-MMITLRKRRKLPLAVAVAAGVC(MBP)SAQAMA [Bio-KRRLamB19C-MBP]
2 |  | binds | Biotin-MMITLRKRRKLPLAVAVAAGVCSAQAMA [Biotinylated-KRRLamB19C signal peptide]
